T1: GST-MBNL1 (1-260) (UniProt Q9NR56 1-260)
T1 sequence: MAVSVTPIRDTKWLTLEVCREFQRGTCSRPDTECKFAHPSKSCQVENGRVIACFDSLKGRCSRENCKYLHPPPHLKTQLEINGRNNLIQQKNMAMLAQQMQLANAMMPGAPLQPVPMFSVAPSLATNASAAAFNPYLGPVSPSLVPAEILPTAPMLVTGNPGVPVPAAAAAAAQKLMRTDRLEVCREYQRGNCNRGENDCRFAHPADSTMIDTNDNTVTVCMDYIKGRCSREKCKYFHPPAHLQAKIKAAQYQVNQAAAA

B1: CHRNA1 polypyrimidine tract RNA probe (ssRNA)
RNA: UUUCUCCUUUUCUGUGGGUGGACAGGGUGACAUGGUA
B2: CUG repeat RNA probe (structured_RNA)
RNA: GCCUGCUGCUGCUGCUGCUGCUGCUGCUGCUGGC

What was measured:
GST-PTBP1 = GST-PTBP1 (UniProt P26599 1-557); experiment: EMSA; no PBZ; 10 mM Tris-HCl pH 7.5, 50 mM KCl, 1 mM DTT, room temperature 30 min, 20 ul; 6 ug protein, RNA 2.5 pmol/ul; then PBZ 15 min at room temperature; settings: protein: recombinant; tags: GST (pGEX-6P-1); label: 5'-biotin
Sequence of GST-PTBP1 (P26599 whole entry, the tested form may be a part): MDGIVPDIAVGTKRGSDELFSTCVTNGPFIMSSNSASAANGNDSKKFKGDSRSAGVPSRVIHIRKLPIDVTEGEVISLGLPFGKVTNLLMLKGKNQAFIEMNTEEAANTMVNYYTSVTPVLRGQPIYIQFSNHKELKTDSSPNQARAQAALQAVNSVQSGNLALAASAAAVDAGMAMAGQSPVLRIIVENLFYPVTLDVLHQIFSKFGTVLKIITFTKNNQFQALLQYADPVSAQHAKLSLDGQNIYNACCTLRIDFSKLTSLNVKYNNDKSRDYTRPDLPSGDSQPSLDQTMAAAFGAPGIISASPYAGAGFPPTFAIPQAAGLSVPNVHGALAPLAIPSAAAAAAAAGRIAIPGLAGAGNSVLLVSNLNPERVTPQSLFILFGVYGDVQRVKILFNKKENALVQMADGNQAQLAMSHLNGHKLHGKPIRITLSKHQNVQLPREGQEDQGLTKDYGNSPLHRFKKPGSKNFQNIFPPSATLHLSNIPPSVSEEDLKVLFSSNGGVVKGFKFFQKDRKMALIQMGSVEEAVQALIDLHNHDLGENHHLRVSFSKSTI

GST-MBNL1 (1-260) = target: T1, GST-MBNL1 (1-260); experiment: as above; settings: protein: recombinant; tags: GST (N-terminal fusion); label: 5'-biotin

Row | Binder | binding result (GST-PTBP1) | binding result (GST-MBNL1 (1-260))
1 | B1 | binds | 
2 | B2 |  | binds

— article PMC4850456, “Phenylbutazone induces expression of MBNL1 and suppresses formation of MBNL1-CUG RNA foci in a mouse model of myotonic dystrophy”
